This assay has as its target HLA-B*08:01 (human). As to the kind of experiment: UV peptide exchange ELISA. A general note: In an ELISA, binding on a coated surface is turned into a signal by an enzyme label.

Where two headings read alike, the source gives them in different places.

Regarding FAFEKLIQF (modifications not checked) [… (SEQ ID NO: 101)], the peptide exchange yield was in the range of 50 to 75%. Where the note is “remark: other sources report otherwise”, EPVTKAEM [EPVTKAEM (SEQ ID NO: 97)] displayed a peptide exchange yield of 50 to 75%.

The values above are taken from patent US20250145684A1.
